Patent US20230340054A1

Each substance was assayed against IL-2 receptor on the cell surface (high and intermediate affinity receptors on human PBMC subsets) (assay: cell-based or functional assay).

pSTAT5α levels in CD4+ cells | pSTAT5α levels in CD8+ cells | Substance
2.23 | 1.5 | IgG fusion IL-2 mutein D20N
1.46 | 1.7 | IgG fusion IL-2 mutein D20T
1.61 | 0.957 | IgG fusion IL-2 mutein D84E
1.2 | 1.05 | IgG fusion IL-2 mutein D84S
1.21 | 0.96 | IgG fusion IL-2 mutein D84T
1.01 | 1.1 | IgG fusion IL-2 mutein D109H
1.77 | 1.32 | IgG fusion IL-2 mutein D109K
1.28 | 0.906 | IgG fusion IL-2 mutein D109M
1.77 | 1.27 | IgG fusion IL-2 mutein D109R
1.53 | 1.05 | IgG fusion IL-2 mutein D109W
1.09 | 1.01 | IgG fusion IL-2 mutein E15D
1.66 | 0.932 | IgG fusion IL-2 mutein E15S
3.06 | 1.79 | IgG fusion IL-2 mutein E15T
1.3 | 1.18 | IgG fusion IL-2 mutein E61W
2.19 | 0.946 | IgG fusion IL-2 mutein E68F
2.01 | 1.16 | IgG fusion IL-2 mutein E68L
2 | 1.4 | IgG fusion IL-2 mutein E68Q
2.36 | 1.22 | IgG fusion IL-2 mutein E68R
1.96 | 0.997 | IgG fusion IL-2 mutein E68W
2.6 | 1.28 | IgG fusion IL-2 mutein E68Y
1.62 | 1.02 | IgG fusion IL-2 mutein E95D
0.981 | 1.05 | IgG fusion IL-2 mutein E95N
1.56 | 1.05 | IgG fusion IL-2 mutein E95Q

pSTAT5α levels in CD4+ cells | pSTAT5α levels in CD8+ cells | Substance
1.47 | 1 | IgG fusion IL-2 mutein E95S
1.64 | 1.02 | IgG fusion IL-2 mutein E95T
1.02 | 1.18 | IgG fusion IL-2 mutein E106W
1.98 | 1.18 | IgG fusion IL-2 mutein F42M
1.05 | 1.09 | IgG fusion IL-2 mutein H16K
1.4 | 1.63 | IgG fusion IL-2 mutein H16R
1.75 | 1.21 | IgG fusion IL-2 mutein H16Y
1.77 | 1.2 | IgG fusion IL-2 mutein I92F
0.981 | 1.08 | IgG fusion IL-2 mutein I92V
1.11 | 0.986 | IgG fusion IL-2 mutein I92W
1.94 | 1.12 | IgG fusion IL-2 mutein I92Y
2.39 | 1.19 | IgG fusion IL-2 mutein K35T
1.24 | 1.16 | IgG fusion IL-2 mutein K43W
0.944 | 0.868 | IgG fusion IL-2 mutein K48I
2.23 | 1.16 | IgG fusion IL-2 mutein K48S
1.12 | 1.18 | IgG fusion IL-2 mutein K48V
2.35 | 1.59 | IgG fusion IL-2 mutein L12I
1.64 | 1.03 | IgG fusion IL-2 mutein L12V
1.3 | 1.01 | IgG fusion IL-2 mutein L12Y
1.49 | 1.06 | IgG fusion IL-2 mutein L19F
2.22 | 1.04 | IgG fusion IL-2 mutein L19I
1.31 | 0.953 | IgG fusion IL-2 mutein L19V
1.65 | 0.939 | IgG fusion IL-2 mutein L72F

pSTAT5α levels in CD4+ cells | pSTAT5α levels in CD8+ cells | Substance
1.6 | 0.93 | IgG fusion IL-2 mutein L72R
1.83 | 1.16 | IgG fusion IL-2 mutein M23I
1.91 | 1.05 | IgG fusion IL-2 mutein M23L
1.01 | 0.989 | IgG fusion IL-2 mutein M104H
1.25 | 0.851 | IgG fusion IL-2 mutein M104I
1.58 | 1.02 | IgG fusion IL-2 mutein N71W
1.2 | 1.04 | IgG fusion IL-2 mutein N88S
2.85 | 1.88 | IgG fusion IL-2 mutein P34F
1.89 | 1.1 | IgG fusion IL-2 mutein P34W
1.11 | 1.29 | IgG fusion IL-2 mutein P34Y
1.51 | 1.05 | IgG fusion IL-2 mutein P65E
1.59 | 1.31 | IgG fusion IL-2 mutein P65K
1.71 | 1.07 | IgG fusion IL-2 mutein P65N
1.6 | 1.13 | IgG fusion IL-2 mutein P65Q
1.67 | 1.15 | IgG fusion IL-2 mutein P65R
1 | 0.825 | IgG fusion IL-2 mutein S87E
2 | 1.07 | IgG fusion IL-2 mutein S87T
1.9 | 1.14 | IgG fusion IL-2 mutein T111H
1.74 | 1.23 | IgG fusion IL-2 mutein T111M
1.64 | 1.08 | IgG fusion IL-2 mutein T111N
2.1 | 1.28 | IgG fusion IL-2 mutein T111Q
2.47 | 1.24 | IgG fusion IL-2 mutein T111S
1.58 | 1.15 | IgG fusion IL-2 mutein T111W
